Data as given in the nanobody polyreactivity screen of Harvey et al. (2022).

Experiment: yeast display, Sf9 membrane polyspecificity reagent, FACS + sequencing; frameworks hold sequencing errors
Summary of the method: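 Synthetic nanobody libraries on Saccharomyces cerevisiae BJ5465 were galactose-induced for 36–48 hours, stained 1 hour at 4 °C with 10% biotinylated, detergent-solubilized Sf9 membrane reagent and enriched on streptavidin microbeads. FACS then separated cells into low and high (top ~1%) gates by anti-HA (expression) and streptavidin (reagent binding) fluorescence. Genes were colony-PCR amplified, MiSeq 2 × 250 sequenced and CDR-length filtered. A clone's polyreactivity label is that of its gate of origin.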

Row | Sequence | polyreactivity (PSR sort gate)
1 | QVQLQESGGGLVQAGGRLRLSCAASGNIFEADIMGWYNKAQGKERELVASITDGGSTNYADSVKGRFTINRYNAKNNVYLQMNSLKPEDTAVYYCAAIAYPDIPTYFDYDSDYFYWGQGTQVTVSS | high polyreactivity
2 | QVQLQESGGGLVQAGGSLGCAASGNISTRSEMGWYRQAPGNEREFVATINSGGLTNYADSVKGRFTISRDNAKNTVNLRMNSLKPEDTAVYYRAVYGYFSDPYDYWGQGTQVTVSS | low polyreactivity
3 | QVQLQESGGGLVQAGGSLLSCAASGTISYYREMGWYRQAPGKERELVAGIGVGTITYYADSVKGRFTISRDNAKNTVYLQMNSLKPEDTAVYYCAALIDGNDSHAYWGQGTQVTVSS | low polyreactivity
4 | QVQLQESGGGLVQAGGSLRLSCAASCTISQEDWMGWYRQAPCKEREFVASIGLGSNTNYADSLKGRFTISRDNAKNTVYLKMNSLKPEYTAVYYCASEENLAYYFKYYYWGQGTQVTVSS | low polyreactivity
5 | QVQLQESGGGLVQAGGSLRLSCAASDYIFPYKPKGWYRQAPGKEREFVATIATGGSTNYADSVKGRFTISRDNAKNTVYLQMNSLKPEDTAVYYCAVYGGPAGYLTYRGQGTQVTVSS | high polyreactivity
6 | QVQLQESGGGLVQAGGSLRLSCAASGFIFARNYIGWYRQAPGKERELVAGIGEGASTNYADSVKGRFTISRDNAKNTVYLQMNSLEPEDTAVYYCAVGDTVLGYHYYWGQGTQVTVSN | low polyreactivity
7 | QVQLQESGGGLVQAGGSLRLSCAASGFIFARNYMGWNRQAPGKERELVAGIGVGASTNYADSVKGRFTISRDNAKNTVYLQINSLEPEDTAVYYCAVGDTVLGYHYYWGQGTQVTVSI | low polyreactivity
8 | QVQLQESGGGLVQAGGSLRLSCAASGHISIKLQRGWYRAAPGKERELVATINLGAITYYADSVKGLITNSRDNAKNTVYLQLNSLKPEDTAVYYCAARWRSGFTSGDYWGQGTQVTVSS | low polyreactivity
9 | QVQLQESGGGLVQAGGSLRLSCAASGIIFDNPNMGWYRQAPGKERELVATINSGATTNYADSVKGRFTISRDNENNTVYLQMNSLIPEDTAVYYCAVDLSPTYFYFWGQGTQVTVSS | high polyreactivity
10 | QVQLQESGGGLVQAGGSLRLSCAASGNIFLGDTMGWYRQAPGKEREFVAGIARGGNPYYADSVKGRFTISRNNAKNTVFLQKNSLKPEDTAVHYCAVQRSHASDYNYWGQGTQVTVSS | low polyreactivity
11 | QVQLQESGGGLVQAGGSLRLSCAASGNISVTGFMGWYRQAPGKERELVASIGIGGTTYYADSVKGRFSISRDNAKNTVYVQMNSLKPEDTAVYYCAARYLYYAYSYWGQGTQVTVRS | low polyreactivity
12 | QVQLQESGGGLVQAGGSLRLSCAASGNISVTGFMGWYRQAPVKERELVASIGIGGTTYYADSVKGRFSISRDNAKNTVYLQMNSLKPEDTAVYYCAARYLYYAYSYWGQGSQVTVSS | low polyreactivity
13 | QVQLQESGGGLVQAGGSLRLSCAASGSIFADVQMGWYRQAPGKERELVASINFRGTTSYYADSVKGRFTISRDNAKNTVYLQMSSLKPEETEVYYCAVGRSEGGDFAYWGQGTHVTVSS | low polyreactivity
14 | QVQLQESGGGLVQAGGSLRLSCAASGSIFDGFNMGWYRQAQGKEREFVAAISYGASTYYADSVKGRFTVSRDNAKNSVYLQMNSLKPEDTAVYYCAVYDELYHVLVYWGRGTQVTVSS | low polyreactivity
15 | QVQLQESGGGLVQAGGSLRLSCAASGSIFDYVSMGWYRQAPGEERELVVTITLGSNTYYADSVKGRFTISSDIAKNSVYLQMNSLNPEDTAVYYCAASALWGYVYPYWGLGTQVTVSS | high polyreactivity
16 | QVQLQESGGGLVQAGGSLRLSCAASGSIFHLHIMCWYRQAPGKESESVAAISYGTSTYYADSVKGRFTICRDNAKNTVYLQMNSPKPDDTAVYYCAALFLVSKHHHYWGEGTQVTVSS | low polyreactivity
17 | QVQLQESGGGLVQAGGSLRLSCAASGSIFVSVTMGWYRQAPGKERELGASIGRGSTTNHADSVKGRFTISRDNAKNIVYLLMNSLKPEDTAVYYCAALESYGKYHGYWGQGTLVTVSS | low polyreactivity
18 | QVQLQESGGGLVQAGGSLRLSCAASGSIFYVYGMGWYRLAPGKVRELVAGINAGTNTNYADSVRGRFTISRDNAKNTVHLQMTSLNPEETAVYYCAADGNGYQAHEYWGQGTQVTVSS | high polyreactivity
19 | QVQLQESGGGLVQAGGSLRLSCAASGSISGPQVMGWYRQAPGKEREFVAAINVGANTYYADNVKGRFTISRDNAKNTVYLQMTSLKPEDTAVYYCAAVYYGDIGHEYWGQGTQVTVSC | low polyreactivity
20 | QVQLQESGGGLVQAGGSLRLSCAASGSISHYIFMCWYRQSPGKEREFVAGIGYGGTTNYADSVKGRFTISRDNAKNTVYLQMISLTPEDTAMYYCAAREATEFYLYYWGQGTQVTVSS | low polyreactivity
21 | QVQLQESGGGLVQAGGSLRLSCAASGSISHYIFMGWYRQAPGKEREFVAGIGYGGTTNYADSVKGRFTISRDNAINTVYLQMNSLKPEDTAMYYCAAREATEFYLYYWGQGTQVTVSS | low polyreactivity
22 | QVQLQESGGGLVQAGGSLRLSCAASGSISRLDYMGWYRQASGKERELVAAIDNGSTTYYADSVKGRLTISRDNAKYTVYLQMNSLKTEDTAVYFCAAVRGRGGTHAYWGQGTQVTVSG | low polyreactivity

Row | Sequence | polyreactivity (PSR sort gate)
23 | QVQLQESGGGLVQAGGSLRLSCAASGSISSRDAMGWYRQAPGKEREFVATIASGTTTYYADSVKGSFTISRDNAENTVYLQTNSLKPEDTAVYYCAAPTIQIYPFYYWGQGTQVTVSC | high polyreactivity
24 | QVQLQESGGGLVQAGGSLRLSCAASGSITRYYDMGWYRQAPGKEREFVAGISGGAITYYADSVKGRFTISRDNAKNTVYLQMNSLKPEDTAVYYCAADTGVYQYHSYWGQGTQVTVSS | low polyreactivity
25 | QVQLQESGGGLVQAGGSLRLSCAASGSIYDGFNMGWYRQAPGKEREFVAAISYGASTYYADSVKGRFTVSRDNAKNSVYLQMNSLKPEDTAVYYCAVYDELYHVLVYWGRGTQVTVSS | low polyreactivity
26 | QVQLQESGGGLVQAGGSLRLSCAASGSNFKVVEMGLYRQAPAKDREFVATIGEGGNTYYADSVKGRFTISRDNAKNTVYLQMNSLKPEDTAVYFYAVVLGTSYRYTYWGQGTQVTVSS | low polyreactivity
27 | QVQLQESGGGLVQAGGSLRLSCAASGTIFRISDMGSYRQAPGKELEFVAAITYGANTYYADSGKGRFTISRDNAKNTVYLQMNSLKPEDTAVYYCAVPPVKETILDYWGQGTQVTVSS | low polyreactivity
28 | QVQLQESGGGLVQAGGSLRLSCAASGTISPLPAMGWYRQAPGKERDFVAGIDTGAITNYADSVKGRFTISRDNAKHTVYLQMNSLKPEETAVYYCADFPAAYDYYERYYTYWGQGTQVTVSS | low polyreactivity
29 | QVQLQESGGGLVQAGGSLRLSCAASGTISPLPAMGWYRQAPGKEREFVAGIDTGAITNYADSVKGRFTISRDNGKNTVYLQMNSLNPEDTAVYYCAVFRGAYDYYEGYYTYWGQGTQVTVSS | low polyreactivity
30 | QVQLQESGGGLVQAGGSLRLSCAASGVIFARNYMGWYRQAPGKERELVAGIGVGASTNYADSVKGRFTISRDNAKNTVYLQMNRLEPEDTAVYYCAVVDTVLGYHYYWGQGTQVTVSN | low polyreactivity
31 | QVQLQESGGGLVQAGGSLRLSCAASGYIFPRIDMGWYRQAPGKEREFDAGISYDAITNYADSVKGRFTISLDNAKNTVYLQMNSLKPEDTAVYYCAVSYYGTPLFTYWGQGTQVTVSS | high polyreactivity
32 | QVQLQESGGGLVQAGGSLRLSCAASGYISLAQTIGWFRQAPGKEREFVASIALGSSTYYTDSVKGSFTISRDNAKTTVYLQMNSLKPDDTAVYYCAARVGASYAHDYWGQGTQVTVSS | low polyreactivity
33 | QVQLQESGGGLVQAGGSLRLSCAASGYISLAQTIGWYRQAPGKEREFVASIALGSRTYYTDSVKGSFTISRDNAKTTVYLQMNSLKAEDTAVYYCAARVGASYAHDYWGQGTQVTVSS | low polyreactivity
34 | QVQLQESGGGLVQAGGSLRLSCAASGYISLAQTIGWYRQAPGKEREFVASIALGSSTYYTDSVKGSFTISRDNANTPVYLQMNSLKPEDTAVYYCAARVGASYAHDYWGQGTQVTVSC | low polyreactivity
35 | QVQLQESGGGLVQAGGSLRLSCAASGYISQSSVMGWYRQASGKEREFVASISYGATTYYADSVKGRFTISRDNAKNTVYLQTNSPKPEDTAVYYCAVWVKRGFSHRYWGQGTQVTVSS | high polyreactivity
36 | QVQLQESGGGLVQAGGSLRLSCAASGYISYFVGMAWYRQAPGKEREFVASIADGSNTYYADSVKGRFTISRDNAKNTVYLQRNSLKPEDTAVFYCAVEDSWTYRFDYWGQGTLVTVSS | high polyreactivity
37 | QVQLQESGGGLVQAGGSLRLSCAASSNHSTLDVMGWYRQAPGKEREIVASIGSGGITNYADSVKGRFTISRDNAKNTVYLQMNSLKPEDTAVYYFAVLNQAYTDLIYWGQGTQVTVSS | high polyreactivity
38 | QVQLQESGGGLVQAGGSLRLSCAATGTIFTDRFMGWYLQAPGKERELVACISPGTSTNYADSVKGRFTISRDNAKNTVYLKINSLKPEDTAVYYCAADWSTGNNLPYWGQGTQVTVSS | high polyreactivity
39 | QVQLQESGGGLVQAGGSLRLSCAATGTIFTDRFMGWYRQAPGKERELVAGISPGTSTNYADSVKGRFTISRDNAKNTVYLQMNSLKPEDTAVYYCAADWSTGNTLPYWGQGTQVTVSS | high polyreactivity
40 | QVQLQESGGGLVQAGGSLRLSCASSGSIYDDTYMGWYRQAPGKERELVATIDSGSTTNYADSVKRRITISRDNAKNTVYLQMNSLKPEDTAVYYCAAADSHIDYFDYWGQGTQVTVSS | low polyreactivity
41 | QVQLQESGGGLVQAGGSLRLTCAASGYISYLQSMGLYRQAPVKERELVAGITLGTTTYNADSVKGRFTISPDNVQNTVYLQMNSLKPEYTAVYYCAVAVGHYPEFWYWGQGTQVTMSS | high polyreactivity
42 | QVQLQESGGGLVQAGGSLRMSFAASGNIFDADIMGWYRPAPGKEPELVASITDGRRTNYADSVKGRYTIRRDSEKNTVYLQMNSLKPEDTAVYYCAAIAYPVVPTFVDFDSDYFHWGQGTHVTVSS | high polyreactivity
43 | QVQLQESGGGLVQAGGSLRPRCAAGGTIFVSVNRGWYRHAPGEEREFVASITQGATTNYADSLIGRFTISRDNAKNTVYLQMNCQKPEDTAVYYCAVHESGGITFTYWGQGTQVTVSS | high polyreactivity
44 | QVQLQESGGGLVQAGGSLRPSCAASGSISDGVPMGCYRQAPGEERELVATTVLGATTNYADSVKGRFTISRGNAKNTVYLQMNSLKPEETAVYYCAAPLRYDKGFSYWGQGTQVTVSS | low polyreactivity
